Data as given in patent US20250074999A1 (PENTIXAPHARM, published 2025).
Positions count from the first letter of the chain named.

T1: O-glycosylated LYPD3-STP-ECD (expressed in and purified from NM-F9 cells) (human, UniProt O95274 234-303, O-glycosylated on Ser/Thr by NM-F9 cells: predominantly TF (Galβ1-3GalNAcα1-), lower amounts of Tn)
T1 construct: also called NM-F9-derived LYPD3-STP; STP-rich C-terminal part of the ECD; not shown: fusion partner for purification and detection, e.g. Twin-Strep-tag, MBL or polyhistidine tag; which one and at which end
T1 sequence: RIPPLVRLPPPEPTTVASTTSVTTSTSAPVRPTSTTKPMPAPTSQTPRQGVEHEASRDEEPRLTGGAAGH

B1: 21E9-222 (antibody, V domains shown)
VH: EVQLVESGGGLVQPGGSLRLSCAASGFDFSNYYYMCWVRQAPGKGLEWVSCIAAGSGGYTYYASWAKGRFTISRDNSKNTLYLQMNSLRAEDTAVYYCASSGDYKGFNLWGQGTLVTVS
VL: DIVMTQSPSSLSASVGDRVTITCQASQSISSYLAWYQQKPGKPPKLLIYGASNLASGVPSRFSGSGSGTDFTLTISSLQPEDVATYYCQGYYYSFSDIFAFGGGTKVEI
notes: Humanized 21E9; also called humanized aLYPD3 antibody 21E9-222
B2: 21E9-228 (antibody, V domains shown)
VH: B1 VH with E1Q, V5Q, S50L, V95I
VL: B1 VL with D1A, V3R, M4I, T5A, V15T, P43A, S77C, P80S, V83F, G103Q
notes: Humanized 21E9; also called humanized aLYPD3 antibody 21E9-228
B3: 21E9-227 (antibody, V domains shown)
VH: B1 VH with E1Q, Q13K, V38I, S77A, T80S
VL: B1 VL with D1A, V3R, M4I, T5A, V15T, P43A, S77C, P80S, V83F, G103Q
notes: Humanized 21E9; also called humanized aLYPD3 antibody 21E9-227
B4: 21E9-226 (antibody, V domains shown)
VH: B1 VH
VL: B1 VL with D1E, V107L
notes: Humanized 21E9; also called humanized aLYPD3 antibody 21E9-226
B5: 21E9-221 (antibody, V domains shown)
VH: B1 VH with L115M
VL: B1 VL
notes: Humanized 21E9; also called humanized aLYPD3 antibody 21E9-221
B6: 21E9-220 (antibody, V domains shown)
VH: B1 VH with E1Q, V5Q, S50L, V95I
VL: B1 VL
notes: Humanized 21E9; also called humanized aLYPD3 antibody 21E9-220
B7: 21E9-219 (antibody, V domains shown)
VH: B1 VH with E1L, Q13K, V38I, S77A, T80S, Y96W
VL: B1 VL
notes: Humanized 21E9; also called humanized aLYPD3 antibody 21E9-219
B8: 21E9-224 (antibody, V domains shown)
VH: B1 VH
VL: B1 VL with D1E, P43A, V83F
notes: Humanized 21E9; also called humanized aLYPD3 antibody 21E9-224
B9: 21E9-225 (antibody, V domains shown)
VH: B1 VH
VL: B1 VL with D1A, V3R, M4I, T5A, V15T, P43A, S77C, P80S, V83F, G103Q
notes: Humanized 21E9; also called humanized aLYPD3 antibody 21E9-225

target: T1, O-glycosylated LYPD3-STP-ECD (expressed …); assay: ELISA and flow cytometry (FIGS. 14, 15 and 16)
Procedure: Briefly, differently glycosylated and non-glycosylated protein antigens or glycans conjugated to carbohydrate-polyacrylamide conjugates (carbohydrate PAA-conjugates, GlycoNZ) were coated to 96-well plates overnight, unspecific binding was blocked and test antibody samples were added. In some assays an anti-huLYPD3 huIgG1 control monoclonal Ab was used, that was purified from CHO cell supernatant after expression of the antibody sequence derived from patent application WO 2011/070088 A1 (SEQ ID NOs: 51 and 52 of WO 2011/070088) (“aLYPD3 mAb”). This control anti-huLYPD3 antibody binds to the extracellular domain of human LYPD3 in a glycosylation-independent manner. To control protein antigen coating to the ELISA plates anti-huLYPD3 rabbit polyclonal antibody (R&D Systems, cat. no. AF5428) (“aLYPD3 pAb”) or a-MBL antibody (Novusbio) (“aMBL”) for constructs expressed as MBL fusion protein were used. Antibodies recognizing specific glycan structures were used to detect glycosylation of the coated proteins. Anti-TFa (“aTF”) antibody clone HH8 was kindly provided by Prof. Clausen, University of Copenhagen. Antibodies specifically recognizing Tn (“aTn”) were either purchased from SBH Sciences or also provided by Prof. Clausen, University of Copenhagen (clone 5F4). Afterwards, peroxidase conjugated anti-IgG secondary antibody was added, followed by 3,3′,5,5′-tetramethylbenzidine (TMB) substrate reaction. Antibody binding rates were determined by measurement absorbance at 450 nm and 620 or 630 nm as reference wavelength using a multimode microplate reader (PerkinElmer EnSpire 2300 or Tecan Spark).
Binding of aLYPD3 clones to cell lines with different glycosylation status of LYPD3 was tested. LYPD3-transfected NM-F9 (LYPD3-F9), expressing LYPD3 carrying non-sialylated O-glycans, not transfected NM-F9 (corresponding WT cells), expressing endogenous level of LYPD3, and LYPD3-transfected HEK-O-glyc KO (LYPD3-HEK-O-glyc. KO) expressing LYPD3 without O-glycans, were stained with aLYPD3 clones and detected via fluorophore-coupled anti-human-IgG secondary reagent. Expression of LYPD3 and TFa was confirmed using control aLYPD3 pAb and mAb and aTF mAb. To determine background staining, an irrelevant hIgG1 control was included. DAPI was used to discriminate live from dead cells. Cells were analyzed using a Canto II (BD) flow cytometer.

Binding result, binds:
B1
B2
B3
B4
B5
B6
B7
B8
B9
